Here are results for one molecule from patent US20030087394, “Insulin related transcription factor and uses thereof” (published 2003).

The data set deals with RIPE3b1 47-kDa protein (mMafA), affinity purified and SDS-PAGE eluted (UniProt A0A1U7RCQ9 A0A1U7RCQ9:1-361). Briefly: pulldown; streptavidin agarose affinity purification. As to conditions: tags: from HIT T-15 nuclear extract; label: 5' biotin top strand. The procedure:
This HP fraction contained about 85% of the recovered RIPE3b 1 factor with a 2.5-fold purification. The RIPE3b binding factor was then affinity purified from the HP fraction using a 5′ biotinylated RIPE3b oligonucleotide and streptavidin agarose. The purified fractions were analyzed for binding to a rat insulin II-139 to -101 bp probe by EMSA [FIG. 3, (24)]. The −139 to −101 bp probe contains the RIPE3b and overlapping A2 elements. Five distinct factors (RIPE3b1, RIPE3b2 and three A2 specific complexes) can bind the −139 to −101 bp probe. Thus the −139 to −101 bp probe serves as a good indicator of the purification process. The RIPE3b1 binding activity was eluted in two fractions and was the predominant DNA binding activity in these fractions. RIPE3b1 binding activity was purified 95-fold as compared to the HP fraction […]. The purified fraction was next analyzed on a 10% SDS-PAGE gel along with the starting HIT T-15 nuclear extract and HP fraction. […] The regions corresponding to the individual protein bands were cut; the proteins were then eluted and analyzed for the RIPE3b1 binding activity. […]

Chain of RIPE3b1 47-kDa protein (mMafA), affinity purified and SDS-PAGE eluted (A0A1U7RCQ9 entry or part of it): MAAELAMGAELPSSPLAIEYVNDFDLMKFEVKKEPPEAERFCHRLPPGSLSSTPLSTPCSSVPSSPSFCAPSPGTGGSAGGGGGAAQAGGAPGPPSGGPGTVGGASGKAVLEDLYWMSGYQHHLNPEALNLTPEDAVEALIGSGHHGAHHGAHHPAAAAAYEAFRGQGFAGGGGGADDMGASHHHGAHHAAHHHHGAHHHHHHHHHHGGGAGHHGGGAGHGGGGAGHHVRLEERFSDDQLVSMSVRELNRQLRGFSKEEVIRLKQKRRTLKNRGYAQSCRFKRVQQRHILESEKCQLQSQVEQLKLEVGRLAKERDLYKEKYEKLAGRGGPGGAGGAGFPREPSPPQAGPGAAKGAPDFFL

B1: biotinylated RIPE3b (-126 to -101) dimer (dsDNA)
DNA 1: TGACTGGAAACTGCAGCTTCAGCCCCTCTGGAAACTGCAGCTTCAGCCCCAC
DNA 2: GTGGGGCTGAAGCTGCAGTTTCCAGAGGGGCTGAAGCTGCAGTTTCCAGTCA
B1: the binding result is “binds”.
